Consider one protein from publication PMC7732191 (Science Advances, 2020).

This series deals with the molecule itself. Put plainly: cryo-EM structure.

B1: full-length human KCC2a (potassium-chloride cotransporter 2, SLC12A5) (natural protein, UniProt Q9H2X9-1 1-1139, looked up)
chain: MSRRFTVTSLPPAGPARSPDPESRRHSVADPRHLPGEDVKGDGNPKESSPFINSTDTEKGKEYDGKNMALFEEEMDTSPMVSSLLSGLANYTNLPQGSREHEEAENNEGGKKKPVQAPRMGTFMGVYLPCLQNIFGVILFLRLTWVVGIAGIMESFCMVFICCSCTMLTAISMSAIATNGVVPAGGSYYMISRSLGPEFGGAVGLCFYLGTTFAGAMYILGTIEILLAYLFPAMAIFKAEDASGEAAAMLNNMRVYGTCVLTCMATVVFVGVKYVNKFALVFLGCVILSILAIYAGVIKSAFDPPNFPICLLGNRTLSRHGFDVCAKLAWEGNETVTTRLWGLFCSSRFLNATCDEYFTRNNVTEIQGIPGAASGLIKENLWSSYLTKGVIVERSGMTSVGLADGTPIDMDHPYVFSDMTSYFTLLVGIYFPSVTGIMAGSNRSGDLRDAQKSIPTGTILAIATTSAVYISSVVLFGACIEGVVLRDKFGEAVNGNLVVGTLAWPSPWVIVIGSFFSTCGAGLQSLTGAPRLLQAISRDGIVPFLQVFGHGKANGEPTWALLLTACICEIGILIASLDEVAPILSMFFLMCYMFVNLACAVQTLLRTPNWRPRFRYYHWTLSFLGMSLCLALMFICSWYYALVAMLIAGLIYKYIEYRGAEKEWGDGIRGLSLSAARYALLRLEEGPPHTKNWRPQLLVLVRVDQDQNVVHPQLLSLTSQLKAGKGLTIVGSVLEGTFLENHPQAQRAEESIRRLMEAEKVKGFCQVVISSNLRDGVSHLIQSGGLGGLQHNTVLVGWPRNWRQKEDHQTWRNFIELVRETTAGHLALLVTKNVSMFPGNPERFSEGSIDVWWIVHDGGMLMLLPFLLRHHKVWRKCKMRIFTVAQMDDNSIQMKKDLTTFLYHLRITAEVEVVEMHESDISAYTYEKTLVMEQRSQILKQMHLTKNEREREIQSITDESRGSIRRKNPANTRLRLNVPEETAGDSEEKPEEEVQLIHDQSAPSCPSSSPSPGEEPEGEGETDPEKVHLTWTKDKSVAEKNKGPSPVSSEGIKDFFSMKPEWENLNQSNVRRMHTAVRLNEVIVKKSRDAKLVLLNMPGPPRNRNGDENYMEFLEVLTEHLDRVMLVRGGGREVITIYS
modifications: N-acetylglucosamine (glycosylation) at multiple Asn residues of the ECD
Regarding B1, the stoichiometry N (usually the number of molecules, sites or subunits per partner or assembly) was found to be 2.
